Consider 125 sequences from the supplement of paper PMC9112550, “Optimization of the antimicrobial peptide Bac7 by deep mutational scanning” (BMC Biology, 2022).

The data set deals with Escherichia coli TOP10. Nature of the data set: shrunken log2 fold change of peptide-encoding DNA abundance (4.5 h post-induction vs induction); higher = less antimicrobial activity (less host growth inhibition). The conditions noted are these: time post-induction: 4.5 h; library: site-saturation at positions 5, 18, 19, 20.
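Further: peptides expressed intracellularly from a pBAD plasmid library in pooled LB shake-flask culture, induced with 0.3% L-arabinose, DNA abundance read by NGS, three biological replicates, DESeq2 with apeglm shrinkage.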

In the case of RRIRIRPPRLPRPRPRPDTPPRP, the “shrunken log2 fold change” value amounted to 0.0459.
As to RRIRSRPPRLPRPRPRPVFVPRP, the “shrunken log2 fold change” value is -0.00419.
The value for RRIRIRPPRLPRPRPRPDHDPRP was -0.0366; that for RRIRIRPPRLPRPRPRPKIAPRP was 0.00729; that for RRIRCRPPRLPRPRPRPPRPPRP was 0.957.
Consider RRIRNRPPRLPRPRPRPFDTPRP, for which the “shrunken log2 fold change” value turned out to be 0.0291.
As for RRIRDRPPRLPRPRPRPSVRPRP, the figure is 0.0325.
Consider RRIRPRPPRLPRPRPRPEPYPRP, for which the “shrunken log2 fold change” value was -0.309.
With RRIRNRPPRLPRPRPRPFLMPRP, the “shrunken log2 fold change” value is -0.0732.
As for RRIRRRPPRLPRPRPRPVQDPRP, the figure is 0.252; as for RRIRSRPPRLPRPRPRPPKQPRP, -0.215.
As for RRIRTRPPRLPRPRPRPHHMPRP, the “shrunken log2 fold change” value was -0.321.
Take RRIRNRPPRLPRPRPRPDNPPRP: the “shrunken log2 fold change” value was -0.168.
Take RRIRKRPPRLPRPRPRPRWIPRP: the “shrunken log2 fold change” value is 0.112.
As to RRIRDRPPRLPRPRPRPGKQPRP, the “shrunken log2 fold change” value is -0.0597.
RRIRIRPPRLPRPRPRPLYHPRP: the “shrunken log2 fold change” value is -0.761.
Turning to RRIRPRPPRLPRPRPRPGVQPRP, the “shrunken log2 fold change” value came to 0.336.
As for RRIRNRPPRLPRPRPRPNWQPRP, the figure is -0.123; as for RRIRWRPPRLPRPRPRPDYYPRP, -0.218.
In the case of RRIRKRPPRLPRPRPRPPHLPRP, the “shrunken log2 fold change” value is 0.332.
For RRIRRRPPRLPRPRPRPADSPRP, the “shrunken log2 fold change” value is -0.0331.
As to RRIRQRPPRLPRPRPRPYWKPRP, the “shrunken log2 fold change” value stood at 0.000139.
Regarding RRIRPRPPRLPRPRPRPWGQPRP, the “shrunken log2 fold change” value is 0.0568.
With RRIRSRPPRLPRPRPRPILEPRP, the “shrunken log2 fold change” value is 0.0161.
With RRIRTRPPRLPRPRPRPGCRPRP, the “shrunken log2 fold change” value stood at 0.235.
RRIRYRPPRLPRPRPRPPVWPRP: the “shrunken log2 fold change” value turned out to be 0.0256.
On to RRIRHRPPRLPRPRPRPGAAPRP, for which the “shrunken log2 fold change” value came out at 0.324.
For the sequence RRIRKRPPRLPRPRPRPALCPRP, the “shrunken log2 fold change” value came out at 0.146.
The value for RRIRPRPPRLPRPRPRPASAPRP was 0.441; that for RRIRPRPPRLPRPRPRPVEVPRP was -0.0864.
Take RRIRYRPPRLPRPRPRPPIHPRP: the “shrunken log2 fold change” value was -0.958.
As for RRIRYRPPRLPRPRPRPEPTPRP, the “shrunken log2 fold change” value turned out to be 0.0581.
RRIRARPPRLPRPRPRPWCGPRP: the “shrunken log2 fold change” value came to 0.0572.
With RRIRLRPPRLPRPRPRPYKLPRP, the “shrunken log2 fold change” value is -0.0961.
RRIRHRPPRLPRPRPRPHNGPRP: the “shrunken log2 fold change” value is -0.362.
As to RRIRFRPPRLPRPRPRPQHEPRP, the “shrunken log2 fold change” value was -0.25.
As for RRIRVRPPRLPRPRPRPETKPRP, the figure is 0.242.
Consider RRIRARPPRLPRPRPRPFRNPRP, for which the “shrunken log2 fold change” value was -0.575.
In the case of RRIRSRPPRLPRPRPRPVRVPRP, the “shrunken log2 fold change” value stood at 0.743.
As to RRIRVRPPRLPRPRPRPMFVPRP, the “shrunken log2 fold change” value stood at 0.00262.
The value for RRIRHRPPRLPRPRPRPQPGPRP was -0.0184; that for RRIRRRPPRLPRPRPRPPMWPRP was 0.548.
With RRIRNRPPRLPRPRPRPGFWPRP, the “shrunken log2 fold change” value is 0.0198.
For the sequence RRIRLRPPRLPRPRPRPLNAPRP, the “shrunken log2 fold change” value was -0.0775.
The value for RRIRNRPPRLPRPRPRPKKQPRP was -0.0788; that for RRIRMRPPRLPRPRPRPPEPPRP was 0.296.
Take RRIRHRPPRLPRPRPRPVCLPRP: the “shrunken log2 fold change” value is -0.0609.
For RRIRTRPPRLPRPRPRPERDPRP, the “shrunken log2 fold change” value worked out at 0.0175.
For RRIRLRPPRLPRPRPRPIPWPRP, the “shrunken log2 fold change” value was 0.0447.
Consider RRIRERPPRLPRPRPRPRASPRP, for which the “shrunken log2 fold change” value was -0.0261.
As to RRIRVRPPRLPRPRPRPTCWPRP, the “shrunken log2 fold change” value was 0.835.
For the sequence RRIRPRPPRLPRPRPRPWYTPRP, the “shrunken log2 fold change” value was -0.0297.
As for RRIRERPPRLPRPRPRPIIVPRP, the “shrunken log2 fold change” value was -0.149.
On to RRIRPRPPRLPRPRPRPHMEPRP, for which the “shrunken log2 fold change” value was -0.0417.
RRIRLRPPRLPRPRPRPWDIPRP: the “shrunken log2 fold change” value is -0.0445.
Regarding RRIRKRPPRLPRPRPRPYCHPRP, the “shrunken log2 fold change” value was -0.469.
In the case of RRIRNRPPRLPRPRPRPQLLPRP, the “shrunken log2 fold change” value is -0.0811.
RRIRRRPPRLPRPRPRPSPNPRP: the “shrunken log2 fold change” value stood at 0.396.
The value for RRIRTRPPRLPRPRPRPETDPRP was -0.0144; that for RRIRQRPPRLPRPRPRPMIAPRP was -0.00222; that for RRIRLRPPRLPRPRPRPTEDPRP was -0.0182.
RRIRVRPPRLPRPRPRPSRPPRP: the “shrunken log2 fold change” value worked out at 0.196.
Turning to RRIRFRPPRLPRPRPRPSNFPRP, the “shrunken log2 fold change” value was -0.129.
On to RRIRWRPPRLPRPRPRPKPKPRP, for which the “shrunken log2 fold change” value was -0.0893.
The value for RRIRLRPPRLPRPRPRPFASPRP was -0.062; that for RRIRHRPPRLPRPRPRPEIHPRP was 0.0389; that for RRIRRRPPRLPRPRPRPMFDPRP was 0.195.
In the case of RRIRCRPPRLPRPRPRPQYIPRP, the “shrunken log2 fold change” value was -0.738.
As to RRIRGRPPRLPRPRPRPWLGPRP, the “shrunken log2 fold change” value stood at 0.245.
As for RRIRSRPPRLPRPRPRPPAHPRP, the “shrunken log2 fold change” value worked out at 0.303.
As for RRIRPRPPRLPRPRPRPDTSPRP, the figure is -0.738.
As for RRIRFRPPRLPRPRPRPHVVPRP, the figure is -0.0249.
For the sequence RRIRWRPPRLPRPRPRPIMDPRP, the “shrunken log2 fold change” value was -0.195.
As to RRIRMRPPRLPRPRPRPRLPPRP, the “shrunken log2 fold change” value stood at 0.805.
Turning to RRIRSRPPRLPRPRPRPLAPPRP, the “shrunken log2 fold change” value stood at 0.223.
Turning to RRIRRRPPRLPRPRPRPFPDPRP, the “shrunken log2 fold change” value was found to be 0.255.
Turning to RRIRLRPPRLPRPRPRPWSPPRP, the “shrunken log2 fold change” value is -0.303.
For RRIRVRPPRLPRPRPRPAFRPRP, the “shrunken log2 fold change” value worked out at 0.186.
On to RRIRERPPRLPRPRPRPVKYPRP, for which the “shrunken log2 fold change” value is -0.0311.
For RRIRHRPPRLPRPRPRPLYPPRP, the “shrunken log2 fold change” value was -0.804.
On to RRIRVRPPRLPRPRPRPGDQPRP, for which the “shrunken log2 fold change” value turned out to be 0.0324.
On to RRIRHRPPRLPRPRPRPNNNPRP, for which the “shrunken log2 fold change” value is -1.09.
Consider RRIRCRPPRLPRPRPRPYAQPRP, for which the “shrunken log2 fold change” value was -0.227.
The value for RRIRERPPRLPRPRPRPTRAPRP was 0.571; that for RRIRQRPPRLPRPRPRPHNNPRP was -0.748.
As for RRIRHRPPRLPRPRPRPCTNPRP, the “shrunken log2 fold change” value was -0.249.
As to RRIRERPPRLPRPRPRPRHTPRP, the “shrunken log2 fold change” value was -0.187.
Regarding RRIRGRPPRLPRPRPRPCSQPRP, the “shrunken log2 fold change” value turned out to be 0.19.
Take RRIRSRPPRLPRPRPRPTDKPRP: the “shrunken log2 fold change” value is -0.242.
In the case of RRIRERPPRLPRPRPRPRQSPRP, the “shrunken log2 fold change” value was -0.0972.
RRIRNRPPRLPRPRPRPMCSPRP: the “shrunken log2 fold change” value was -0.0636.
As for RRIRTRPPRLPRPRPRPMPFPRP, the “shrunken log2 fold change” value was -0.00604.
On to RRIRFRPPRLPRPRPRPILRPRP, for which the “shrunken log2 fold change” value is -0.156.
On to RRIRFRPPRLPRPRPRPTNIPRP, for which the “shrunken log2 fold change” value was -0.959.
The value for RRIRRRPPRLPRPRPRPKVGPRP was -0.119; that for RRIRKRPPRLPRPRPRPDKSPRP was 0.0207; that for RRIRLRPPRLPRPRPRPVNCPRP was -0.0144.
Turning to RRIRNRPPRLPRPRPRPHAIPRP, the “shrunken log2 fold change” value is -0.673.
In the case of RRIRIRPPRLPRPRPRPSFWPRP, the “shrunken log2 fold change” value stood at 0.059.
With RRIRWRPPRLPRPRPRPGIMPRP, the “shrunken log2 fold change” value turned out to be 0.238.
The value for RRIRMRPPRLPRPRPRPMNDPRP was 0.25; that for RRIRGRPPRLPRPRPRPYHDPRP was -0.0405; that for RRIRNRPPRLPRPRPRPWVRPRP was -0.0742.
On to RRIRARPPRLPRPRPRPTFMPRP, for which the “shrunken log2 fold change” value amounted to 0.106.
With RRIRHRPPRLPRPRPRPTYHPRP, the “shrunken log2 fold change” value is -0.514.
In the case of RRIRKRPPRLPRPRPRPLGIPRP, the “shrunken log2 fold change” value worked out at 4.29.
As for RRIRDRPPRLPRPRPRPWGKPRP, the “shrunken log2 fold change” value was -0.194.
In the case of RRIRQRPPRLPRPRPRPRFSPRP, the “shrunken log2 fold change” value amounted to 0.0453.
With RRIRARPPRLPRPRPRPYLGPRP, the “shrunken log2 fold change” value was 0.0554.
The value for RRIRHRPPRLPRPRPRPQYQPRP was -0.496; that for RRIRWRPPRLPRPRPRPESVPRP was 0.192.
As for RRIRDRPPRLPRPRPRPTHEPRP, the “shrunken log2 fold change” value came out at 1.09.
Turning to RRIRRRPPRLPRPRPRPGVCPRP, the “shrunken log2 fold change” value turned out to be 0.369.
Consider RRIRCRPPRLPRPRPRPPCLPRP, for which the “shrunken log2 fold change” value was -0.199.
Take RRIRLRPPRLPRPRPRPKCSPRP: the “shrunken log2 fold change” value was -0.035.
Take RRIRERPPRLPRPRPRPVCCPRP: the “shrunken log2 fold change” value was -0.163.
For RRIRSRPPRLPRPRPRPMMQPRP, the “shrunken log2 fold change” value is -0.241.
As for RRIRSRPPRLPRPRPRPLQNPRP, the figure is -0.0368; as for RRIRERPPRLPRPRPRPPAVPRP, 0.349.
Consider RRIRDRPPRLPRPRPRPACQPRP, for which the “shrunken log2 fold change” value came out at 0.0344.
As to RRIRCRPPRLPRPRPRPGHQPRP, the “shrunken log2 fold change” value stood at 0.242.
RRIRTRPPRLPRPRPRPDTVPRP: the “shrunken log2 fold change” value is -0.0391.
For the sequence RRIRFRPPRLPRPRPRPIPAPRP, the “shrunken log2 fold change” value was -0.15.
As for RRIRRRPPRLPRPRPRPMIFPRP, the figure is -0.241; as for RRIRIRPPRLPRPRPRPIGSPRP, -0.0175.
